These results are taken from US9850300B2, “Compositions and methods relating to inhibiting cancer cell growth and/or proliferation” (The Regents of the University of Michigan, priority 2013, dated 2017).

What all share (type): cell-based
The test system of test [1] is ALDH+ and ALDH(−) SKOV3 cells. The experiment in a line: Single cell microfluidic culture, cell division type. The protocol:
To determine if EGFL6 is promoting asymmetric division, a novel microfluidic culture device was used which allows the isolation, confirmation, and culture of individual cells. ALDH^+ and ALDH^(−) SKOV3 cells were FACS-sorted into separate microfluidic devices (see, e.g., Chung, J., Kim, Y. J. & Yoon, E. Appl Phys Lett 98, 123701 (2011)), and confirmed ALDH expression with fluorescent microscopy (FIG. 3Di). Cells were then mock-treated or treated with EGFL6. After 48 hours, live cells were stained using ALDEFLUOR and re-imaged using fluorescent microscopy (FIG. 3Dii, right panels). Cell divisions, type of daughter cell (ALDH^(−) or ALDH^+), and total cell number were assessed. […] Production of ALDH^+ daughter cells from ALDH^(−) cells was not observed. […] This was associated with a statistically significant increase in total cell numbers; 6.5 versus 3.7 average cells/well and total 325 vs. 185 total cells/50 captured cells in EGFL6 treated and control ALDH^(+) cells respectively.

Another test has as its system SKOV3 cells. The experiment in a line: Cell cycle analysis (propidium iodine, FACS). To be noted: EGFL6 treatment 24 hrs after serum starvation. On the procedure:
SKOV3 cells were seeded at 5×10^5 in 6 cm culture plates, synchronized by serum starvation for 24 hrs, then treated with EGFL6 or control for 24 hrs. Cells were fixed with ice-cold alcohol, washed with PBS, and stained with propidium iodine ([…]) and RNase A (100 ug/ml) in PBS for 1 hr at 30° C. Cell cycle profile was acquired by FACS analysis and data were analyzed by Flowjo.

Test [2] concerns ALDH+ CSCs in SKOV3 cells. The test can be described thus: ALDH+ cell percentage and number (ALDEFLUOR FACS). The source says:
It has been shown that aldehyde dehydrogenase enzymatic activity (ALDH) is an excellent marker of ovarian CSCs in SKOV3 cells and primary patient samples (see, e.g., Silva, I. A., et al. Cancer Res (2011); Landen, C. N., Jr., et al. Mol Cancer Ther 9, 3186-3199 (2010); Steg, A. D., et al. Clin Cancer Res 18, 869-881 (2012); Kryczek, I., et al. Int J Cancer 130, 29-39 (2012); Deng, S., et al. PLoS ONE 5, e10277 (2010)). The impact of EGFL6 treatment on the percentage of ALDH^+ CSCs in vitro was next assessed. […] However, given the increase in total cell numbers, the absolute ALDH^+ CSC number remained unchanged (FIG. 3Aiii). […] Human ovarian cancer ascites cells were also treated with EGFL6 in a tumor sphere assay. Once again, treatment with EGLF6 was associated with a reduction in ALDH^+ cell percentages in tumor spheres (FIG. 3B).
(§1) SKOV3, A2008, and A2780 were maintained in RPMI-1640, supplemented with 10% FBS with 1% Penicillin/Streptomycin, and cultured in humidified atmosphere of 5% CO2 at 37° C. For all in vitro cell culture experiments, isolated cells were allow to recover overnight following FACS, prior to treatment. Infantile Hemangioma Stem cells were maintained in EBM-2 medium with growth factor supplement cocktails in culture plates coated with fibronectin. For Echistatin and EGFL6 treatment, cells were pretreated with Echistatin (Sigma, 100 nM) for 24 hours prior to EGFL6 treatment. All transfections were performed using FuGene6 reagent (Promega) per company protocol.
FACS assay was performed as previously described (see, e.g., Silva, I. A., et al. Cancer Res (2011)). Briefly, SKOV3 cells or primary ovarian tumor/ascetics cells were stained for ALDH using ALDEFLUOR kit per company protocol (Stem Cell Technologies). DAPI staining was used to exclude non-viable cells. For FACS cell sorting, equal number of ALDH and ALDH^(−) cells were collected for subsequent experiments.
EGFL6 monoclonal antibody producing hybridoma cells were maintained in RPMI medium supplemented with 10% FBS. For antibody purification, the cells were cultured in reduced FBS (5%). […]

For test [3], the system named is phosphorylation of SHP2, ERK, FAK and SRC in SKOV3 cells. The test can be described thus: Western blot of EGFL6 mediated signal activation. The protocol: Lastly, EGFL6 mediated signal activation was evaluated. Integrin signaling has been reported to induce the […] of FAK, SRC and SHP2 among others. […] Phosphorylation of all of these proteins could be blocked with Echistatin.
Cellular signaling changes associated with EGFL6 was next examined. […] EGFL6 treatment was associated with increased p-SHP2 levels specifically in ALDH^+ cells (FIG. 4Ei). […] SHP2 phosphorylation could be blocked with Echistatin (FIG. 4Eiii) or an EGFL6-blocking antibody. SHP2 phosphorylation was associated with increased p-ERK levels (4Ei-iii).
as §1
EGFL6 monoclonal antibody producing hybridoma cells were maintained in RPMI medium supplemented with 10% FBS. For antibody purification, the cells were cultured in reduced FBS (5%). Culture supernatant was collected and cell debris was removed by centrifugation. EGFL6 antibody was pulled down using Protein G Agarose heeds, Fast Flow (Millipore), washed and eluded with 50 mM glycine PH.2.7. Antibody solution was immediately neutralized to PH 7.2-7.4 with Tris (Ph 9.0, final concentration 25 mM). NaCl was added to final concentration of 150 mM. EGFL6 antibody was applied at 5 μg/ml for in vitro cell treatment and 50 μg/mouse for in vivo treatment.

Where [4] appears, read: ALDH+ SKOV3 cells, EGFL6 treated.

“Also recorded” adds a separate entry of the source.

B1: EGFL6: recombinant EGFL6-flag protein from transfected HEK293 cells, used purified or as 72 hr supernatant (protein)
chain: NAASARHHGLLASARQPGVCHYGTKLACCYGWRRNSKGVCEATCEPGCKFGECVGPNKCRCFPGYTGKTCSQDVNECGMKPRPCQHRCVNTHGSYKCFCLSGHMLMPDATCVNSRTCAMINCQYSCEDTEEGPQCLCPSSGLRLAPNGRDCLDIDECASGKVICPYNRRCVNTFGSYYCKCHIGFELQYISGRYDCIDINECTMDSHTCSHHANCFNTQGSFKCKCKQGYKGNGLRCSAIPENSVKEVLRAPGTIKDRIKKLLAHKNSMKKKAKIKNVTPEPTRTPTPKVNLQPFNYEEIVSRGGNSHGGKKGNEEKMKEGLEDEKREEKALKNDIEERSLRGDVFFPKVNEAGEFGLILVQRKALTSKLEHKDLNISVDCSFNHGICDWKQDREDDFDWNPADRDNAIGFYMAVPALAGHKKDIGRLKLLLPDLQPQSNFCLLFDYRLAGDKVGKLRVFVKNSNNALAWEKTTSEDEKWKTGKIQLYQGTDATKSIIFEAERGKGKTGEIAVDGVLLVSGLCPDSLLSVDD
Turning to B1, the “number or type of cell divisions of ALDH(−) cells” value in test [1] (ALDH(−) SKOV3 cells, 48 hours) is given as “no significant impact”. Also, the “increase in the percentage of ALDH+ cells undergoing asymmetric division” value in test [1] (ALDH+ SKOV3 cells, 48 hours, vs mock-treated) is recorded as 2 fold. In addition, in test [1] (setting [4]), the average cells/well is on record as 6.5 cells/well and the “total cells/50 captured cells” value is 325 total cells/50 captured cells. In the test with SKOV3 cells, the “decrease in the number of cells in G1 phase” value is roughly 20%; the “number of cells in S and G2/M phases” value is given as “concomitant increase”. In addition, the “percentages of ALDH+ CSCs” value in test [2] (EGFL6 treatment) is recorded as “decreasing percentages; also recorded: reduced”. Also, the “absolute ALDH+ CSC number” value in test [2] (increasing concentrations of EGFL6) is “unchanged”. Further, in test [3] (EGFL6 treated SKOV3 cells), the p-FAK levels entry is listed as “modest increase” and the p-SRC levels result is given as “modest increase”. For the same molecule, the p-SHP2 levels entry in test [3] (treatment of ALDH+ SKOV3 cells) was “further increase; also recorded: increased”. Further, the p-ERK levels entry in test [3] (treatment of ALDH+ and ALDH(−) cells) is “increase p-ERK”.
